± gives the uncertainty stated by the source.

The nature of this data set: amyloid nucleation score (Sup35N fusion, yeast selection) (log enrichment); library NNK2; higher = more nucleation; inactive = no reads after selection. Put shortly:
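Random libraries were run with three technical output replicates. In each, psi-negative yeast expressing Sup35N fused to peptides of 20 random codons were induced 24 hours with 100 μM copper sulfate and grown 7 days at 30°C on medium lacking adenine and uracil, and input and output plasmid inserts were Illumina-sequenced. The nucleation score is the DiMSum log enrichment of output over input reads, centred on the mode score of non-aggregating sequences, and sequences under 100 input reads were excluded.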
Substance SSCIFYFTIRTNQTYLGI registered an amyloid nucleation score of 6.93 ± 0.06.
APRGASALGCVYSDCSVVSI: the amyloid nucleation score amounted to 0.058 ± 1.
With MFNFWWSFYALFKLSWRPGF, the amyloid nucleation score was -0.996 ± 0.49.
Substance ISRLWCHRHLCCPGWSMVRQ had an amyloid nucleation score of -0.063 ± 0.74.
As for SIQRTVS, the figure is 0.473 ± 0.2; as for MMLNSINLKYLIWLCN, 2.73 ± 0.06; as for TCVQLKNAIFQVSWYILLQG, -0.322 ± 0.65.
RCILASAGWAIVGKNCEAPQ had an amyloid nucleation score of 0.647 ± 0.26.
As for VDSVTGVMTFSTRSRSSDGD, the figure is 0.844 ± 0.43.
Take NYYCFQIRMLENNEEVFGIG: the amyloid nucleation score result is “inactive”.
The substance DCFSYSHLRGACNVECLFYP had an amyloid nucleation score of -0.645 ± 1.1.
Turning to WLGYFK, the amyloid nucleation score entry is “inactive”.
With VRMSQKDGKTPFQMFGHLEM, the amyloid nucleation score turned out to be 0.039 ± 0.21.
In turn, HCCKSVRLESIRMRCGACYL came in with an amyloid nucleation score of 0.007 ± 0.56.
In turn, LVWCAISSNNKGLINVLADS returned an amyloid nucleation score of -1.47 ± 0.5.
SLTVFHLKYMSQNIKAE returned an amyloid nucleation score of -0.797 ± 1.
For the substance MRSSFGK, the amyloid nucleation score is -0.086 ± 0.5.
As for LARSLSVNQYKPNLLFVGCD, the figure is -1.52 ± 1.1.
In the case of SNRRKSAGDSFVRWMCCLT, the amyloid nucleation score was 2.61 ± 0.15.
The value for ADGVSSWLTVLTFSHWRVK was 1 ± 0.31.
Consider TGALVNM, for which the amyloid nucleation score was 0.13 ± 1.1.
As for PNMGLVNCRRNFCCRLWRIC, the amyloid nucleation score is -0.469 ± 1.1.
Consider GYRNPLLLILLDRVKFSCSR, for which the amyloid nucleation score was -1.19 ± 1.
TTPLTRRFRRFHVW had an amyloid nucleation score of 1.02 ± 0.26.
VYQIRKV: the amyloid nucleation score was -0.523 ± 0.33.
In turn, SPCLDGDRHVGSQMLSPLSW returned an amyloid nucleation score of 0.919 ± 0.33.
NNELDRISRTVCLWWVG registered an amyloid nucleation score of -0.239 ± 0.65.
As for SWKGHIISSAHQQLESPSLW, the amyloid nucleation score worked out at 0.345 ± 0.23.
Substance RIRVVPKWSFISNRRNCGKL gave an amyloid nucleation score of 4.25 ± 0.054.
The value for LGYLIPNDEYFILWVIVCWN was -0.024 ± 1; that for KMSPQ was “inactive”.
As for HIVRNYFTLTSCAHTIHFAD, the figure is -0.861 ± 1; as for SFEWKPVFLSRLRPRIRHQV, 5.66 ± 0.066.
In the case of ELLSYRRSIKYCMGLEEPWA, the amyloid nucleation score was -0.119 ± 0.49.
The substance TLDIALKGG registered an amyloid nucleation score of 0.271 ± 0.25.
TASIDKRVTGSSREWWRSRQ registered an amyloid nucleation score of 0.357 ± 0.66.
In turn, VWPGLIGHRSFFINLHVGKG displayed an amyloid nucleation score of 7.38 ± 0.082.
With ECSRSINYLRLVLNLE, the amyloid nucleation score came out at 0.708 ± 0.34.
The value for ISMTTVDPQMEEFGLRHVGV was 0.831 ± 0.31; that for ERYLCVVDMEIKGRALRKRW was -0.144 ± 0.44; that for KASLDN was 0.018 ± 0.51.
For the substance CVKDQSSRRRWLIYWAHSLS, the amyloid nucleation score was -0.145 ± 0.76.
Take IKTVIRCLDLVSFHRYGIGV: the amyloid nucleation score is -0.401 ± 0.31.
On to QLCFA, for which the amyloid nucleation score was -0.031 ± 0.47.
As for CLSASTALREGFWNPWRCGS, the figure is 0.164 ± 0.8.
As for NWLSMWLWFVCMSLVCMVFR, the figure is 1.77 ± 0.16.
YTRSYGPFPSHLVNLARNLS gave an amyloid nucleation score of -0.905 ± 0.32.
In the case of DGISFSAKSSSYSDASLRMR, the amyloid nucleation score is 1.62 ± 0.097.
Consider FRVDYKMKCAFASHFSNSFY, for which the amyloid nucleation score entry is “inactive”.
As for WRCGVVFRDEYCYRGNRTFK, the figure is -0.675 ± 0.26.
VGKLS registered an amyloid nucleation score of -0.528 ± 0.29.
Take PILGGEFDAGWRNFLFWKGW: the amyloid nucleation score was determined as 0.448 ± 0.66.
Regarding SSLGSSGAEKSRIGYIVIER, the amyloid nucleation score was found to be 0.261 ± 0.77.
As for RYIMHL, the figure is -0.105 ± 1.1; as for LYEVLESVMIGI, -0.097 ± 0.6; as for FHIFQFVSLGFWSSEG, “inactive”.
Substance TFRYFGDWNLQRGML gave an amyloid nucleation score of 0.85 ± 0.52.
The substance VENVTDGAVSARYDDMDTSS showed an amyloid nucleation score of -0.179 ± 0.3.
The substance CYNLCCLPFCGVNLMFWLQV displayed an amyloid nucleation score of 7.992 ± 0.033.
On to ICTGVSTHIEPRPLTELCFR, for which the amyloid nucleation score was 2.6 ± 0.073.
With AIFDTIYC, the amyloid nucleation score was -0.541 ± 1.1.
The value for HPKAYARVTTK was -0.068 ± 0.36.
For the substance FWVKVNMSLGMSNLFVYACL, the amyloid nucleation score was 6.298 ± 0.024.
As for YEHRNGLWSMKKRLIG, the figure is 0.253 ± 0.31; as for TIQGLFRFSADVRTCAFMGS, 2.33 ± 0.15.
The substance EWIWM showed an amyloid nucleation score of -0.129 ± 0.43.
In the case of SSYGWSGTC, the amyloid nucleation score is -0.833 ± 0.63.
As to YSTEPSRHGIWNG, the amyloid nucleation score is -0.735 ± 0.56.
As for FSFYLGRKSMRWCNSCWYSW, the figure is -0.445 ± 0.22.
TFSTYSFLFVKTVI had an amyloid nucleation score of -0.417 ± 0.2.
YVQVFRSLDYNHHAKS came in with an amyloid nucleation score of -0.508 ± 0.39.
For HCPVSVVTRHGLTVNDVRHY, the amyloid nucleation score is -0.062 ± 0.46.
GSVFLRGTYWVLKDVCGWKE yielded an amyloid nucleation score of 0.391 ± 0.56.
On to GLYEYPHGKTIMVDWMAGRL, for which the amyloid nucleation score was found to be 1.17 ± 0.28.
FSSNLISPSVEISCVLIWLG: the amyloid nucleation score worked out at 5.67 ± 0.074.
As for NLNDLVVLELYSRFLLNWFE, the figure is -0.282 ± 0.46; as for YSGTWLMVHKNLMVRKKLVP, 0.499 ± 0.38; as for MIGSGVW, -1.07 ± 0.78.
Substance RVMSHT registered an amyloid nucleation score of 0.658 ± 0.51.
Regarding NICSTGPLFWNFLFVV, the amyloid nucleation score is 1.83 ± 0.15.
As for IYCVRQSDGQYSSEMAHYII, the figure is 2.64 ± 0.094.
DFYGYRKDFFLEQCPACSLY returned an amyloid nucleation score of -1.38 ± 0.78.
As for NAICPIKVSGFGCLSKR, the figure is 0.092 ± 1.1; as for SYTMVTLPSPSL, -0.224 ± 0.23.
As for SCRTQVMVLSLLFKRKVGFN, the figure is -1.28 ± 0.36; as for GLTLMSR, 1.06 ± 0.12.
The value for FCVLIGGCFFGNSK was 6.157 ± 0.038; that for ENGTLTIYMVAL was 4.39 ± 0.075.
Take DSIYVL: the amyloid nucleation score was -0.831 ± 0.44.
For TVRLVWSWMHTPLFGPVTCA, the amyloid nucleation score turned out to be 0.073 ± 0.56.
In turn, SIFCGPDVVNTGPKLG registered an amyloid nucleation score of 0.751 ± 0.6.
As to FCSHVGLVYCTYIMMRVSMR, the amyloid nucleation score was determined as 5.501 ± 0.034.
As to DVRPDLNDKSRTVDSDVLLC, the amyloid nucleation score is -0.846 ± 0.78.
In the case of RMRVIISR, the amyloid nucleation score was -0.881 ± 0.4.
For the substance FDCGGCKNMGF, the amyloid nucleation score was -1.74 ± 0.62.
As for NNRQK, the amyloid nucleation score is 0.63 ± 0.43.
As for MVFVFKDSLIFSRSLYIMEC, the figure is -1.34 ± 0.41; as for HCYQTDRSHIICHELLHCFV, -0.74 ± 0.49.
For FSEVSCGLCTMYTLFVEFFN, the amyloid nucleation score worked out at 0.174 ± 1.
MISYYLMSIYS registered an amyloid nucleation score of 4.58 ± 0.065.
The value for QLVNMRTCLLSRDLRLLELL was -0.318 ± 0.45.
SWGYNRF: the amyloid nucleation score result was “inactive”.
Substance MTKRG gave an amyloid nucleation score of 0.187 ± 0.41.
The value for CVYRASIVRSRSNYEAVWYS was 0.341 ± 0.24.
Turning to LIYIICVSLFSRVVMVIANF, the amyloid nucleation score was -1.25 ± 0.78.
For LASLSDFPFYLTWWS, the amyloid nucleation score was -0.157 ± 0.45.
Take FACLYKTMQQLMGIKMCVKA: the amyloid nucleation score is 0.277 ± 0.4.
In turn, VCFVWDKARAMCSFYFV had an amyloid nucleation score of -0.596 ± 0.79.
In turn, ISFTVYGPRMVVWLQGIMFG came in with an amyloid nucleation score of -0.86 ± 0.35.
On to FHISYDTSS, for which the amyloid nucleation score was -0.35 ± 1.1.
GYNQLLTQGKPGYCFRISRV yielded an amyloid nucleation score of -1.29 ± 0.78.
YFEPSSPGVIV: the amyloid nucleation score result was “inactive”.
In the case of SVFLSNLFSYRSADNYGMAR, the amyloid nucleation score result was “inactive”.
In turn, TCFTSCSG came in with an amyloid nucleation score of 0.263 ± 0.37.
FLSVTFFRLIRCMAL: the amyloid nucleation score entry is “inactive”.
In turn, SWFVRLGTRNWYTLRRVVIG returned an amyloid nucleation score of -0.315 ± 0.29.
In turn, CHYRMVVKRYTFEHYAFYVG showed an amyloid nucleation score of -0.782 ± 0.61.
Substance DYMNGDKSKKGDYWIMSVNS yielded an amyloid nucleation score of 0.154 ± 0.65.
Turning to VVSKLFRDFYWRMLKSNMGW, the amyloid nucleation score is 0.448 ± 0.62.
As to VSVDSVDAIFRK, the amyloid nucleation score was 0.489 ± 0.64.
Substance VYLFDTYGCSEQFHSVVGYK showed an amyloid nucleation score of -0.916 ± 0.76.
As to DAHTMIGRYTDSSLRHRTWV, the amyloid nucleation score is 1.05 ± 0.3.
In turn, NNRWVRKVSDYRVSC displayed an amyloid nucleation score of 0.243 ± 0.64.
With FMCLHSARNVVMRMDVRVVL, the amyloid nucleation score was 4.93 ± 0.078.
As for MDLRVTVILFSDYEAYFDVT, the figure is 1.33 ± 0.18.
The substance ISSLLFVETELHSVFNLWWM showed an amyloid nucleation score of -0.277 ± 0.44.
As for RSCSMMVVHLYRGYGKFDTP, the figure is -0.354 ± 0.76; as for FRIYA, 0.388 ± 0.29.
For RFCHTSRGSGGLGRLCQLAL, the amyloid nucleation score is 0.157 ± 1.
Turning to MYTSLLVYML, the amyloid nucleation score was 3.78 ± 0.048.
As to KVKSWCTGLLGA, the amyloid nucleation score worked out at 0.075 ± 0.76.
The value for CLFYRCCMHDPRSLLEKGRP was 5.835 ± 0.037.
The substance GLNVFCEKYISFKVMGIVER showed an amyloid nucleation score of 5.24 ± 0.069.
Substance PVIQYVTSG registered an amyloid nucleation score of -0.257 ± 0.5.
In the case of DVGSCVRGYTGQSKNLWTYG, the amyloid nucleation score is 0.028 ± 0.79.
GQVLLFCMRTTYTMDEEFNS showed an amyloid nucleation score of 0.082 ± 1.
On to TIDFWVRFYVRFYSRDGFYY, for which the amyloid nucleation score is -2.33 ± 0.78.
QLSFPSVTDLNRLAIIMLRV: the amyloid nucleation score worked out at 1.13 ± 0.4.
CILGENYRIQSTDAHKGVSR had an amyloid nucleation score of -0.205 ± 0.19.
As for SRTWAARNFLFRWVSPANFT, the figure is 0.119 ± 0.74.
The value for VFVFFGDKW was “inactive”.

For the origin of these results see the supplement of paper PMC12042874.
